Substitutions are numbered along the chain they refer to. Where “and” joins values, the source holds several entries; their conditions need not be identical. Equal entries are not always repeated. Where two headings read alike, the source gives them in different places.

One assay has as its target T1, CD3 (Homo sapiens (Human), UniProt P07766 23-126).
T1 construct: also called human CD3
The assay can be described thus: method not stated.

For assay [1], the target named is HLA-A2 on unpulsed T2 cells (human). The assay can be described thus: flow cytometry on unpulsed T2 cells, anti-human IgG-Fc PE secondary, MFI. (In general: Flow cytometry measures light scatter and fluorescence of single cells or particles in a stream.)
Text: (§1) Cells were acquired on FACS LSR II (BD), and data are presented as mean fluorescence intensity (MFI) of PE in Graphpad Prism.
In assay [2] the target is T2, HLA-A2/WT1RMF complex on cells (human).
T2 construct: also called RMF peptide-pulsed T2 cells; SKM-1 cells
The assay can be described thus: flow cytometry on peptide-pulsed T2 cells, anti-human IgG-Fc PE secondary, MFI.
Text: (§2) We first measured the binding specificity on peptide-pulsed T2 cells by the IgG binders generated from phage display by flow cytometry. […] Cells were acquired on FACS LSR II (BD), and data are presented as mean fluorescence intensity (MFI) of PE in Graphpad Prism.

Assay [3] has as its target T3, HLA-A2/WT1VLD complex on VLD peptide-pulsed T2 cells (human). Described as above.
Text: as §2
Assay [4] deals with T2, HLA-A2/WT1RMF complex on cells. The description is as above. The source holds these as a separate data set.
Text: as §2
For assay [5], the target named is T3, HLA-A2/WT1VLD complex on VLD …. The assay is described as above. This is another data set of the same source.
Text: as §2
The target of assay [6] is T2, HLA-A2/WT1RMF complex on cells. Described as above. This is another data set of the same source.
Text: as §2
Assay [7] deals with T3, HLA-A2/WT1VLD complex on VLD …. The assay is described as above. This is another data set of the same source.
Text: as §2
Assay [8] concerns the target T4, HLA-A2/WT1VLD complex (soluble) (human).
T4 construct: also called HLA-A02/WT1VLD pMHC; HLA-A02/VLD pMHC
The assay can be described thus: SPR, pMHC captured by anti-His. (SPR reads the build-up and loss of mass on a sensor chip optically.)
Experimental: (§3) For determination of avidity and specificity of the HLA-A2/WT1×CD3 bispecific antibodies to HLA-A2/WT1RMF, SPR experiments were again performed at 25° C. on a Biacore T200 with HBS-EP as running buffer (0.01 M HEPES pH 7.4, 0.15 M NaCl, 0.005% Surfactant P20 (GE Healthcare)). […] The HLA-A2/WT1RMF or HLA-A2/WT1VLD was captured for 30 sec and 10 μl/min at 5 or 10 nM (for the bispecific antibody or IgG measurement, respectively). […] The dissociation phase was monitored for 240 sec and triggered by switching from the sample solution to HBS-EP. The chip surface was regenerated after every cycle using an injection of 10 mM glycine pH 2 for 60 sec. Bulk refractive index differences were corrected for by subtracting the response obtained on the reference flow cell (which contains the anti-His antibody, but without HLA-A2/WT1RMF captured on it). Even though it is a 2:1 interaction (analyte is bivalent) the affinity constants were derived from the kinetic rate constants by fitting to a 1:1 Langmuir binding using the BIAeval software (GE Healthcare).

Assay [9] addresses T5, HLA-A2/WT1RMF complex (soluble) (human).
T5 construct: also called HLA-A02/WT1RMF pMHC; HLA-A02/RMF pMHC
As to the kind of experiment: SPR, antibody captured (anti-human Fc), pMHC in solution; affinity.
Experimental: The bispecific constructs were captured for 30 s at 5 nM. […] The dissociation phase was monitored for 120 s and triggered by switching from the sample solution to HBS-EP. The chip surface was regenerated after every cycle using an injection of 3M MgCl₂ at 10 μl/min for 30 sec. Bulk refractive index differences were corrected for by subtracting the response obtained on the reference flow cell which contains the anti-human Fc antibody, but without bispecific construct captured on it. The affinity constants were derived from the kinetic rate constants by fitting to a 1:1 Langmuir binding using the BIAeval software (GE Healthcare).

Assay [10] deals with T5, HLA-A2/WT1RMF complex (soluble). The assay can be described thus: SPR, pMHC captured (anti-His), bivalent antibody in solution; avidity, average.
Experimental: as §3
The target in assay [11] is HLA-A2 on unpulsed T2 cells (human). The assay can be described thus: flow cytometry on unpulsed T2 cells, anti-human IgG-Fc PE secondary, MFI. The source holds these as a separate data set.
Text: as §1
The target of assay [12] is T2, HLA-A2/WT1RMF complex on cells. As to the kind of experiment: flow cytometry on peptide-pulsed T2 cells, anti-human IgG-Fc PE secondary, MFI. This is another data set of the same source.
Text: as §2
Assay [13] has as its target T3, HLA-A2/WT1VLD complex on VLD …. Described as above. This is another data set of the same source.
Text: as §2
For assay [14], the target named is T5, HLA-A2/WT1RMF complex (soluble). The assay can be described thus: SPR, pMHC captured (anti-His), bivalent antibody in solution; apparent KD (avidity), average.
Experimental: as §3
Assay [15] addresses T3, HLA-A2/WT1VLD complex on VLD …. As to the kind of experiment: flow cytometry on peptide-pulsed T2 cells, anti-human IgG-Fc PE secondary, MFI. The source holds these as a separate data set.
Text: as §2
Assay [16] deals with T2, HLA-A2/WT1RMF complex on cells. As to the kind of experiment: flow cytometry on peptide-pulsed T2 cells, anti-human Fc secondary, MFI.
Text: as §2
In assay [17] the target is HLA-A2 with MED13L peptide … on peptide-pulsed T2 cells (human). The assay is described as above.
Text: as §2
The target in assay [18] is HLA-A2 on unpulsed T2 cells (human). The assay can be described thus: flow cytometry on unpulsed T2 cells, anti-human IgG-Fc PE secondary, MFI. The source holds these as a separate data set.
Assay [19] has as its target T2, HLA-A2/WT1RMF complex on cells. The assay can be described thus: flow cytometry on peptide-pulsed T2 cells, anti-human IgG-Fc PE secondary, MFI. The source holds these as a separate data set.
Text: as §2
For assay [20], the target named is T3, HLA-A2/WT1VLD complex on VLD …. The description is as above. This is another data set of the same source.
Text: as §2
Assay [21] deals with T2, HLA-A2/WT1RMF complex on cells. Described as above. The source holds these as a separate data set.
Text: as §2
For assay [22], the target named is T3, HLA-A2/WT1VLD complex on VLD …. The assay is described as above. This is another data set of the same source.
Text: as §2

B1: CD3 binder V9 (antibody, V domains shown)
VH: EVQLVESGGGLVQPGGSLRLSCAASGYSFTGYTMNWVRQAPGKGLEWVALINPYKGVSTYNQKFKDRFTISVDKSKNTAYLQMNSLRAEDTAVYYCARSGYYGDSDWYFDVWGQGTLVTVSS
VL: DIQMTQSPSSLSASVGDRVTITCRASQDIRNYLNWYQQKPGKAPKLLIYYTSRLESGVPSRFSGSGSGTDYTLTISSLQPEDFATYYCQQGNTLPWTFGQGTKVEIK
For B1, the Kd with CD3 was in the range of 35 to 50 nM.

B2: 5E11-IgG (antibody, V domains shown)
VH: QVQLVQSGAEVKKPGSSVKVSCKASGGTFSSYAISWVRQAPGQGLEWMGGIIPIFGTANYAQKFQGRVTITADKSTSTAYMELSSLRSEDTAVYYCARSSYDLYSFDYWGQGTTVTVSS
VL: DIQMTQSPSTLSASVGDRVTITCRASQSISSWLAWYQQKPGKAPKLLIYDASSLESGVPSRFSGSGSGTEFTLTISSLQPDDFATYYCQQYSFPPMITFGQGTKVEIK
For orientation: EC50 (read off the curve) means the concentration at which the effect is half-maximal. Read a low EC50 (read off the curve) as a more potent agent. In the case of B2, the binding result in [1] and in assay [3] was “no binding (tested: 10 µg/ml)” each time. Besides, in [2], the “EC50 (read off the curve)” value was roughly 0.7 µg/mL.

B3: 13B04-IgG (antibody, V domains shown)
VH: EVQLLESGPGLVKPSETLSLTCTVSGGSISSYYWSWIRQPPGKGLEWIGYIYYSGSTNYNPSLKSRVTISVDTSKNQFSLKLSSVTAADTAVYYCARVSYNGLDYWGQGTLVTVSS
VL: B2 VL with S92N, F93M, P94W, P95N, M96P, I97V
As for B3, the binding result in assay [4] is “no binding (tested: 1 µg/ml)”. In addition, in assay [5], the “EC50 (read off the curve)” value was roughly 0.06 µg/mL.

B4: 5C01-IgG (antibody, V domains shown)
VH: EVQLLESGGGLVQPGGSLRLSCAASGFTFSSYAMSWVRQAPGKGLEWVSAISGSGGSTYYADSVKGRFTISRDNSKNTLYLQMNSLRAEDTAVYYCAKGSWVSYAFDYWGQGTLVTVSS
VL: B2 VL with F93I, P94W, P95F, M96P, I97Y
For B4, the binding result in [6] is given as “no binding (tested: 1 µg/ml)”. Also, the “EC50 (read off the curve)” value in assay [7] was roughly 0.02 µg/mL.

B5: 33H09-huIgG1 (antibody, V domains shown)
VH: B2 VH with S99G, Y104F, F106L
VL: DIQMTQSPSTLSASVGDRVTITCRASQSISSWLAWYQQKPGKAPKLLIYDASSLESGVPSRFSGSGSGTEFTLTISSLQPDDFATYYCQQYYDGITFGQGTKVEIK
notes: also called 33H09-IgG
Usually koff stands for the rate constant with which the complex falls apart. A word on the kon: it is the second-order rate constant of association. High values mean fast association, low ones slow association. As to B5, the binding result in assay [8] is listed as “no binding (tested: 1.23 to 100 nM)”; in assay [11] it was “no binding (tested: 1 µg/ml)”; in assay [13], “no binding (tested: 1 µg/ml)”. Also, the Kd in assay [9] is 70 nM and 69 nM; in assay [14], 0.75 nM. The koff is 0.116 s⁻¹ and 0.124 s⁻¹ in assay [9]; 0.00357 s⁻¹ in assay [10]. Moreover, the kon was 1.67e+06 M⁻¹ s⁻¹ and 1.8e+06 M⁻¹ s⁻¹ in assay [9]; 4.74e+06 M⁻¹ s⁻¹ in [10]. In addition, the “EC50 (read off the curve)” value in assay [12] is roughly 0.06 µg/mL.

B6: 11G06-huIgG1 (antibody, V domains shown)
VH: B2 VH with S99T, S100G, Y101P, D102Y, L103Y, Y104G, S105A
VL: B5 VL with Y91G, Y92F, D93R, I95Y
notes: also called 11G06-IgG
Regarding B6, in assay [15], the binding result was “binds”.

B7: ESK1-TCB (bispecific antibody, V domains shown)
VH 1: QMQLVQSGAEVKEPGESLRISCKGSGYSFTNFWISWVRQMPGKGLEWMGRVDPGYSYSTYSPSFQGHVTISADKSTSTAYLQWNSLKASDTAMYYCARVQYSGYYDWFDPWGQGTLVTVSS
VL 1: not shown
VH 2: not shown
VL 2: QAVVTQEPSLTVSPGGTVTLTCGSSTGAVTTSNYANWVQEKPGQAFRGLIGGTNKRAPGTPARFSGSLLGGKAALTLSGAQPEDEAEYYCALWYSNLWVFGGGTKLTVL
In the case of B7, the entries for the “EC50 (read off the curve)” value in assay [16] and in assay [17] were roughly 1 µg/mL and roughly 0.3 µg/mL, respectively.

B8: CD3 binder CH2527 (antibody, V domains shown)
VH: not shown
VL: B7 VL 2
In the assay with CD3, B8 displayed a Kd of 85 to 130 nM.

B9: 11D06-huIgG1 (antibody, V domains shown)
VH: QVQLVQSGAEVKKPGSSVKVSCKASGGTFSSYAISWVRQAPGQGLEWMGGIIPIFGTANYAQKFQGRVTITADKSTSTAYMELSSLRSEDTAVYYCARSIELWWGGFDYWGQGTTVTVSS
VL: B5 VL with S76G, Y92E, G94Y, I95T
notes: also called 11D06-IgG; 11D06 IgG
Consider B9, for which the binding result in [8] is “no binding (tested: 1.23 to 100 nM)”; in assay [18], “no binding (tested: 10 µg/ml)”; in [20], “no binding (tested: 10 µg/ml)”. Further, the Kd is 35 nM and 34 nM in [9]; 0.61 nM in assay [14]. For the same molecule, the koff is 0.0378 s⁻¹ and 0.0357 s⁻¹ in [9]; 0.00181 s⁻¹ in assay [10]. The kon in assay [9] is 1.08e+06 M⁻¹ s⁻¹ and 1.04e+06 M⁻¹ s⁻¹; in assay [10], 2.97e+06 M⁻¹ s⁻¹. Moreover, the “EC50 (read off the curve)” value in assay [19] is roughly 0.06 µg/mL.

B10: 11B09-IgG (antibody, V domains shown)
VH: B9 VH with S99V, I100P, E101G, L102R, W104Y, G106A, F107M
VL: DIQMTQSPSTLSASVGDRVTITCRASQSISSWLAWYQQKPGKAPKLLIYDASSLESGVPSRFSGSGSGTEFTLTISSLQPDDFATYYCQQEDDYPLTFGQGTKVEIK
For the molecule B10, in [21], the binding result is recorded as “no binding (tested: 1 µg/ml)”. Besides, the “EC50 (read off the curve)” value in assay [22] is roughly 0.02 µg/mL.

(Values after patent US20190248916A1 (Hoffmann-La Roche, published 2019).)
